Legend:
Assay in all cases: pHLA tetramer staining of transfected HEK293T cells
[1] = target: HLA-B*57:01-LF9 L8 tetramer; conditions: parent: est. 58; read off a plot
[2] = target: HLA-B*57:01-TW10 T3N tetramer; conditions: read off a plot; for response: parent: est. 19, scale: relative to HLA-B*57:01-TW10 binding to KIR3DL1*001; for percent of parent (normalized to *001 (=100)): parent: est. 100
[3] = target: HLA-B*57:01-TW10 tetramer; conditions: parent: est. 100, read off a plot; for response: scale: relative to HLA-B*57:01-TW10 binding to KIR3DL1*001
[4] = target: HLA-B*57:01-LF9 A8 tetramer; conditions: parent: est. 57; read off a plot

Substance: FLAG-tagged KIR3DL1*001 (from UniProt P43629) L166R
- response [1]: 5
- response [2]: 8
- percent of parent (normalized to *001 (=100)) [2]: 36
- percent of parent (normalized to *001 (=100)) [3]: 48
- response [3]: 48
- response [4]: 9

Substance: FLAG-tagged KIR3DL1*001 (from UniProt P43629) P199L
- percent of parent (normalized to *001 (=100)) [3]: 190
- response [3]: 190
- response [4]: 70

Substance: FLAG-tagged KIR3DL1*001 (from UniProt P43629) P163S
- response [2]: 9
- percent of parent (normalized to *001 (=100)) [2]: 41
- percent of parent (normalized to *001 (=100)) [3]: 97
- response [3]: 97
- response [4]: 45

Substance: FLAG-tagged KIR3DL1*001 (from UniProt P43629) G138W
- response [1]: 23
- response [2]: 10
- percent of parent (normalized to *001 (=100)) [2]: 44
- response [4]: 40

Reference: publication PMC4442525
